Results reported in the supplement of paper PMC7877785.
± gives the uncertainty stated by the source.

Assay: self-splicing fitness, log relative to wild type (ln ratio); higher = more splicing; Tetrahymena group I intron in knt gene, E. coli kanamycin selection, DiMSum; sequences stand for … in CUCUCU…GGAGGGAAAAGUUAUCAGGCAUGCACCUGGUAGCUAGUCUUUAAACCAAUAGAUUGCAUCGGUUUAAAAGGCAAGACCGUCAAAUUGCGGGAAAGGGGUCAACAGCCGUUCAGUACCAAGUCUCAGGGGAAACUUUGAGAUGGCCUUGCAAAGGGUAUGGUAAUAAGCUGACGGACAUGGUCCUAACCACGCAGCCAAGUCCUAAGUCAACAGAUCUUCUGUUGAUAUGGAUGCAGUUCACAGACUAAAUGUCGGUCGGGGAAGAUGUAUUCUUCUCAUAAGAUAUAGUCGGACCUCUCCUUAAUGGGAGCUAGCGGAUGAAGUGAUGCAACACUGGAGCCGCUGGGAACUAAUUUGUAUGCGAAAGUAUAUUGAUUAGUUUUGGAGUACUCGUGGUCG
Procedure, shortened: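 DiMSum derived fitness as the error-weighted combination of fold changes across replicates, kanamycin versus no kanamycin, normalised to wild type. E. coli BL21(DE3) held the library, which randomised all eight P1ex-region intron nucleotides within the knt kanamycin-resistance gene on pET-22b(+). Six replicate transformations grew overnight at 37°C or 30°C on LB agar with or without 25 μg/mL kanamycin, also containing 100 μg/mL carbenicillin, 50 μM IPTG and 0.2% rhamnose, and pooled colonies were amplicon-sequenced on an Illumina HiSeq 2500.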

Row | Sequence | self-splicing fitness (ln) (30 °C) | self-splicing fitness (ln) (37 °C)
1 | GAACAGCAAUAUUACGAUAA | -0.728 ± 0.076 | -0.326 ± 0.092
2 | AGUCAGCAAUAUUACGCAGA | -1.64 ± 0.2 | -1.45 ± 0.22
3 | CUGAAGCAAUAUUACGUUAC | -3.27 ± 0.35 | -2.39 ± 0.44
4 | UUCUAGCAAUAUUACGUCUA | -3.64 ± 0.26 | -2.2 ± 0.17
5 | UACCAGCAAUAUUACGCGGC | -3.78 ± 0.13 | -3.27 ± 0.18
6 | GUGUAGCAAUAUUACGCUUU | -3.2 ± 0.21 | -2.54 ± 0.22
7 | ACAUAGCAAUAUUACGAGCG | -0.74 ± 0.12 | -0.0992 ± 0.12
8 | GUACAGCAAUAUUACGUAGA | -2.65 ± 0.11 | -1.35 ± 0.14
9 | ACGAAGCAAUAUUACGUGUC | -3.76 ± 0.15 | -2.7 ± 0.17
10 | CAAUAGCAAUAUUACGUGCA | -2.72 ± 0.19 | -1.27 ± 0.15
11 | GGGGAGCAAUAUUACGCGCA | -2.35 ± 0.22 | -1.32 ± 0.25
12 | GCGCAGCAAUAUUACGCCGC | -2.28 ± 0.35 | -1.44 ± 0.49
13 | GCGGAGCAAUAUUACGGUCA | -2.75 ± 0.17 | -1.04 ± 0.13
14 | CAUAAGCAAUAUUACGUGCG | -1.15 ± 0.079 | -0.792 ± 0.098
15 | AGGCAGCAAUAUUACGAUGU | -2.41 ± 0.094 | -0.487 ± 0.1
16 | GCCUAGCAAUAUUACGAAUU | -2.09 ± 0.12 | -0.976 ± 0.11
17 | UCCGAGCAAUAUUACGUGAC | -4.99 ± 0.41 | -2.66 ± 0.29
18 | CAGUAGCAAUAUUACGAUGC | -3.51 ± 0.28 | -2.67 ± 0.3
19 | UAUUAGCAAUAUUACGGUCG | -0.442 ± 0.13 | 0.383 ± 0.23
20 | CGAGAGCAAUAUUACGCGUC | -3.01 ± 0.36 | -2.64 ± 0.42
21 | CCGCAGCAAUAUUACGUAUG | -1.31 ± 0.055 | -0.172 ± 0.068
22 | ACCGAGCAAUAUUACGUGCG | -1.64 ± 0.082 | -1.37 ± 0.13
23 | AUUGAGCAAUAUUACGCGAU | -3.68 ± 0.32 | -2.33 ± 0.34
24 | UCACAGCAAUAUUACGGUUG | -1.41 ± 0.087 | -0.981 ± 0.11

Row | Sequence | self-splicing fitness (ln) (30 °C) | self-splicing fitness (ln) (37 °C)
25 | GAUCAGCAAUAUUACGGGAG | -1.64 ± 0.068 | -0.581 ± 0.086
26 | GAUAAGCAAUAUUACGAUCG | -0.76 ± 0.12 | -0.691 ± 0.14
27 | GCCAAGCAAUAUUACGUGGC | -3.84 ± 0.2 | -3.04 ± 0.28
28 | GCGUAGCAAUAUUACGUUCG | -1.48 ± 0.33 | -1.52 ± 0.32
29 | ACAGAGCAAUAUUACGUCAU | -3.71 ± 0.17 | -2.75 ± 0.27
30 | UCGCAGCAAUAUUACGAGAU | -3.01 ± 0.25 | -1.86 ± 0.25
31 | GUGAAGCAAUAUUACGGAAG | -1.94 ± 0.19 | 0.825 ± 0.21
32 | GAACAGCAAUAUUACGUAGA | -0.427 ± 0.049 | -0.162 ± 0.069
33 | GCUAAGCAAUAUUACGCGUA | -1.26 ± 0.12 | -0.718 ± 0.14
34 | UUUCAGCAAUAUUACGAGGC | -2.12 ± 0.22 | –
35 | CAUCAGCAAUAUUACGUUCG | 0.13 ± 0.046 | -0.286 ± 0.063
36 | AUGAAGCAAUAUUACGUCAC | -2.97 ± 0.26 | -1.09 ± 0.18
37 | CAAUAGCAAUAUUACGUAAA | -2.68 ± 0.28 | -2.27 ± 0.4
38 | CCAGAGCAAUAUUACGUUGU | -3.81 ± 0.2 | -3 ± 0.26
39 | UCUUAGCAAUAUUACGGAAG | – | -1.81 ± 0.41
40 | CACCAGCAAUAUUACGCUUG | -1.06 ± 0.052 | -0.22 ± 0.069
41 | GCUCAGCAAUAUUACGGGGG | -3.18 ± 0.17 | -1.92 ± 0.16
42 | GCAGAGCAAUAUUACGACAC | -1.46 ± 0.2 | -0.344 ± 0.33
43 | ACUGAGCAAUAUUACGGUUC | -3.46 ± 0.19 | -2.08 ± 0.21
44 | ACCAAGCAAUAUUACGUCGC | -3.25 ± 0.19 | -1.27 ± 0.14
45 | UAUCAGCAAUAUUACGGAGG | -1.18 ± 0.13 | -0.979 ± 0.14
46 | CUGUAGCAAUAUUACGAUGG | -2.74 ± 0.18 | -1.81 ± 0.19
47 | GCUAAGCAAUAUUACGUAUA | -1.76 ± 0.12 | -0.55 ± 0.13
48 | CAUGAGCAAUAUUACGUUCG | -1.33 ± 0.13 | -0.161 ± 0.14
